Measurements as given in US20260115305A1, “LINKERS, CONJUGATES AND APPLICATIONS THEREOF” (GENEQUANTUM HEALTHCARE (SUZHOU) CO., LTD., priority 2022, published 2026).

B1: ADC-5 (antibody, human IgG1, kappa, V domains shown)
VH: QVQLQQSGSELKKPGASVKVSCKASGYTFTNYGMNWVKQAPGQGLKWMGWINTYTGEPTYTDDFKGRFAFSLDTSVSTAYLQISSLKADDTAVYFCARGGFGSSYWYFDVWGQGSLVTVSS
VL: DIQLTQSPSSLSASVGDRVSITCKASQDVSIAVAWYQQKPGKAPKLLIYSASYRYTGVPDRFSGSGSGTDFTLTISSLQPEDFAVYYCQQHYITPLTFGAGTKVEIKR
modifications: Linker-Payload 1 joined by Sortase A ligation at the C-terminal GALPETGG tag of the light chain (resulting sequence LPXTGn with n = 3, then linker-payload); DAR value 3.5
B2: Ab2 (antibody, human IgG1, kappa, V domains shown)
VH: B1 VH
VL: B1 VL
B3: ADC-7 (antibody, human IgG1, kappa, V domains shown)
VH: B1 VH
VL: B1 VL
modifications: Linker-Payload 3 joined by Sortase A ligation at the C-terminal GALPETGG tag of the light chain; DAR value 3.6
B4: ADC-6 (antibody, human IgG1, kappa, V domains shown)
VH: B1 VH
VL: B1 VL
modifications: Linker-Payload 2 joined by Sortase A ligation at the C-terminal GALPETGG tag of the light chain; DAR value 3.6

Legend:
[1] = first-phase clinical trial; cited from earlier work
[2] = target: T1, TROP2 (human, UniProt P09758 27-323); test: cell-based or functional assay
T1 sequence (looked up): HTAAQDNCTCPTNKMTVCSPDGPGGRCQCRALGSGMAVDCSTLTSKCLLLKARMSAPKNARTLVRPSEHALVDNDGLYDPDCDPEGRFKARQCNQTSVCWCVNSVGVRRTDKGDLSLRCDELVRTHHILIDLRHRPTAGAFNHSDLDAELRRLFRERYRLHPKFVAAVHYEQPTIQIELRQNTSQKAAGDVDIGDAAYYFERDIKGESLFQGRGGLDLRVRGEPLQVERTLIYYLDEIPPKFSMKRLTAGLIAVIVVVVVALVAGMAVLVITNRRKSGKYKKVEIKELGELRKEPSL

[3] = target: T1, TROP2; test: cell-based or functional assay; remark: listed apart in the source

Molecule | patients with adverse events above Grade 3 [1] | patients with interstitial lung disease [1] | Endocytosis by TROP2-positive tumor cells: Half Life [2] | Endocytosis by TROP2-positive tumor cells: Maximum endocytosis (MFI) [2] | Endocytosis by TROP2-positive tumor cells: Maximum endocytosis rate (%) [2] | IC50, inhibition of proliferation of TROP2-positive BxPC-3 cells (CellTiterGlo, 120 h) [3]
DS1062 | 48% | 8% | – | – | – | –
B1 | – | – | 45.6 min | 18600 MFI | 46% | 0.249 nM
B2 | – | – | 48.2 min | 18500 MFI | 46% | –
B3 | – | – | – | – | – | 0.602 nM
B4 | – | – | 42.8 min | 18200 MFI | 45% | 0.254 nM
